Laboratory results taken from US20100092489A1 (Genmab, published 2010).

What was measured:
[1] = target: T1, human CD38 expressed on cells (CHO-CD38, Daudi-luc, fresh multiple myeloma tumor cells) (human, UniProt P28907 1-300); assay: cell-based or functional assay
[2] = target: T1, human CD38 expressed on cells …; assay: cell-based or functional assay; remark: listed apart in the source
[3] = target: T1, human CD38 expressed on cells …; assay: flow cytometry on CHO-CD38 cells, rabbit anti-human IgG-FITC
Experimental: (§1) After harvesting and counting, Daudi-luc cells, CHO cells transfected with CD38 and control CHO cells were resuspended in PBS (1×10⁶ cells/ml). Then, cells were put in 96-well V-bottom plates (100 μl/well) and washed twice in PBS-BSA (PBS supplemented with 0.1% BSA and 0.02% Na-azide). Thereafter, 50 μl antibody solution in PBS-BSA was added to the cells (4° C., 30 min). After washing three times in PBS-BSA, 50 μl (1:400 dilution) of rabbit anti-human IgG-FITC in PBS-BSA was added (4° C. in the dark, 30 min). Cells were washed three times and specific binding of CD38-antibodies to CHO-CD38 and Daudi-luc cells was detected by flow cytometry.

[4] = target: T1, human CD38 expressed on cells …; assay: flow cytometry on Daudi-luc cells, rabbit anti-human IgG-FITC
Experimental: as §1

[5] = target: T1, human CD38 expressed on cells …; assay: flow cytometry on fresh MM tumor cells, FITC-labeled antibody
[6] = target: T1, human CD38 expressed on cells …; assay: cell-based or functional assay; remark: listed apart in the source
[7] = target: T1, human CD38 expressed on cells …; assay: cell-based or functional assay; remark: listed apart in the source
[8] = target: T2, HA-CD38 (HA-tagged extracellular domain of human CD38, wild type) (human, UniProt P28907 43-300); assay: SPR, Biacore 3000, 25° C., antibody immobilized on CM-5 chip, HA-tagged CD38 flowed over; mean of 3 experiments ± SD
T2 construct: The signal peptide SPHMM of the construct is not part of the secreted protein; also called HA-tagged CD38; wt human CD38; not shown: N-terminal HA-tag introduced by PCR primer cd38forha

Row | Binder | EC50 Daudi-luc, ADCC (51Cr release) [1] [µg/mL] | EC50 MM cells, ADCC (51Cr release) [1] [µg/mL] | EC50 CD38-CHO, CDC [2] [µg/mL] | EC50 Daudi-luc, CDC [2] [µg/mL] | EC50 [3] [µg/mL] | EC50 [4] [µg/mL] | EC50 [5] [µg/mL] | EC50, CDC of CHO-CD38 cells (n = 2) [6] [µg/mL] | Log EC50, ADCC of Daudi target cells (n=5) [7] | Ka [8] [M⁻¹] | Kd [8] [pM]
1 | antibody -024 (antibody, human IgG1, V domains shown, Human monoclonal IgG1 antibody; Recombinant form made with human IgG1 heavy chain constant region (pConG1f0.4) and kappa light chain constant region (pConKappa0.4)) VH: EVQLVQSGAEVKKPGESLKISCKGSGYSFSNYWIGWVRQMPGKGLEWMGIIYPHDSDARYSPSFQGQVTFSADKSISTAYLQWSSLKASDTAMYYCARHVGWGSRYWYFDLWGRGTLVTVSS VL: EIVLTQSPATLSLSPGERATLSCRASQSVSSYLAWYQQKPGQAPGLLIYDASNRASGIPARFSGSGSGTDFTLTISSLEPEDFAVYYCQQRSNWPLTFGGGTKVEIK | 0.0097 | 0.056 | 0.24 | > 90 | 0.08 | 0.05 | 0.02 |  |  |  | 
2 | antibody -003 (antibody, human IgG1, V domains shown, Human monoclonal IgG1 antibody; Recombinant form made with human IgG1 heavy chain constant region (pConG1f0.4) and kappa light chain constant region (pConKappa0.4); FITC-labelled in some assays; also called HuMab -003; -003-2F5) VH: not shown VL: DIQMTQSPSSLSASVGDRVTITCRASQGISSWLAWYQQKPEKAPKSLIYAASSLQSGVPSRFSGSGSGTDFTLTISSLQPEDFATYYCQQYNSYPRTFGQGTKVEIK | 0.009 | 0.027 | 3.14 | > 90 | 0.54 | 0.26 | 0.56 | 4.5 | 1.17 | 1.14e+09 | 885
